In patent publication US20240390496A1 (published 2024):

Target: T1, MAGE-A3 peptide on HLA-A*02:01 (human)
T1 peptide: KVAELVHFL
Assay: killing

B1: MAGE-A3 (112-120) TCR (MAGE-A3-112-120-Va / MAGE-A3-112-120-Vb) (TCR, V domains shown)
Valpha: GDSVTQTEGLVTLTEGLPVMLNCTYQTIYSNPFLFWYVQHLNESPRLLLKSFTDNKRTEHQGFHATLHKSSSSFHLQKSSAQLSDSALYYCAFDTNTYKVIFGKGTHLHVLP
Vbeta: DMKVTQMPRYLIKRMGENVLLECGQDMSHETMYWYRQDPGLGLQLIYISYDVDSNSEGDIPKGYRVSRKKREHFSLILDSAKTNQTSVYFCASSSTNTEVFFGKGTRLTVL
binding result: recognises
